Substrate: O=c1ccn([C@@H]2O[C@H](COP(=O)(O)OP(=O)(O)O[C@H]3O[C@H](CO)[C@H](O)[C@H](O)[C@H]3O)[C@@H](O)[C@H]2O)c(=O)[nH]1
Assay: UDP-Glo glycosyltransferase assay
Assay type: biochemical, Homo sapiens
Details: no acceptor, 50 mM Tris pH 7.5, 5 mM MnCl2, 37 °C, 60 min

Protein | Km
GLT8D1 (Homo sapiens) (protein) MSFRKVNIIILVLAVALFLLVLHHNFLSLSSLLRNEVTDSGIVGPQPIDFVPNALRHAVDGRQEEIPVVIAASEDRLGGAIAAINSIQHNTRSNVIFYIVTLNNTADHLRSWLNSDSLKSIRYKIVNFDPKLLEGKVKEDPDQGESMKPLTFARFYLPILVPSAKKAIYMDDDVIVQGDILALYNTALKPGHAAAFSEDCDSASTKVVIRGAGNQYNYIGYLDYKKERIRKLSMKASTCSFNPGVFVANLTEWKRQNITNQLEKWMKLNVEEGLYSRTLAGSITTPPLLIVFYQQHSTIDPMWNVRHLGSSAGKRYSPQFVKAAKLLHWNGHLKPWGRTASYTDVWEKWYIPDPTGKFNLIRRYTEISNIK | 3500 µM
GLT8D1 (Homo sapiens; G78W) (protein) MSFRKVNIIILVLAVALFLLVLHHNFLSLSSLLRNEVTDSGIVGPQPIDFVPNALRHAVDGRQEEIPVVIAASEDRLWGAIAAINSIQHNTRSNVIFYIVTLNNTADHLRSWLNSDSLKSIRYKIVNFDPKLLEGKVKEDPDQGESMKPLTFARFYLPILVPSAKKAIYMDDDVIVQGDILALYNTALKPGHAAAFSEDCDSASTKVVIRGAGNQYNYIGYLDYKKERIRKLSMKASTCSFNPGVFVANLTEWKRQNITNQLEKWMKLNVEEGLYSRTLAGSITTPPLLIVFYQQHSTIDPMWNVRHLGSSAGKRYSPQFVKAAKLLHWNGHLKPWGRTASYTDVWEKWYIPDPTGKFNLIRRYTEISNIK | 2300 µM
GLT8D1 (Homo sapiens; R92C) (protein) MSFRKVNIIILVLAVALFLLVLHHNFLSLSSLLRNEVTDSGIVGPQPIDFVPNALRHAVDGRQEEIPVVIAASEDRLGGAIAAINSIQHNTCSNVIFYIVTLNNTADHLRSWLNSDSLKSIRYKIVNFDPKLLEGKVKEDPDQGESMKPLTFARFYLPILVPSAKKAIYMDDDVIVQGDILALYNTALKPGHAAAFSEDCDSASTKVVIRGAGNQYNYIGYLDYKKERIRKLSMKASTCSFNPGVFVANLTEWKRQNITNQLEKWMKLNVEEGLYSRTLAGSITTPPLLIVFYQQHSTIDPMWNVRHLGSSAGKRYSPQFVKAAKLLHWNGHLKPWGRTASYTDVWEKWYIPDPTGKFNLIRRYTEISNIK | 2500 µM

— PMC7003067
